Key:
[1] = biological target: complex of SEQ ID NO: 12 and SEQ ID NO: 16 (MBP-AK / MBP-AKA) (Ustilago maydis, UniProt A0A0D1E894); assay: IMAP fluorescence polarization assay, inhibitor measurement of aurora kinase activity; type: biochemical, U. maydis
Method: Assay 3: For the commercially available IMAP Assay (Molecular Devices), 2 substrates for human aurora kinases (Kemptide, Cat #R7331, sequence 5TAMRA-LRRASLG-OH and PKAtide, Cat #R7250, Lot #130188, sequence 5FAM-GRTGRRNSI-NH2) may be purchased commercially. The assay was carried out in accordance with the instructions of the manufacturer.
The IMAP fluorescence polarization assay (Molecular Devices) is based on the specific high-affinity interaction between phosphate groups and trivalent metal ions. The kinase reaction phospholrylates a fluorescent substrate which is then specifically bonded by the metal beads present in the stop solution. This interaction increases the fluorescence polarization, which allows kinase activity to be determined. The assay was carried out in accordance with the instructions of the manufacturer as follows:
1 Vol. of inhibitor in 4% DMSO or 4% DMSO
1 Vol. of enzyme solution
Enzyme solution: for example SEQ ID NO: 12 and SEQ ID NO: 16 (1:1) in Complete Reaction Buffer ATP/substrate: 70 μM ATP/200 nM FAM-PKAtide or TAMRA-Kemptide in Complete Reaction Buffer
Fluorescence polarization was measured in a Tecan Ultra microtitre plate fluorimeter using the following measurement parameters:
Unless indicated otherwise, the activity of the AK was determined by the IMAP method as described under General Methods. […]

[2] = test system: SEQ ID NO: 16 (MBP-AKA fusion protein; C terminus of aurora kinase activator um03367 of U. maydis with TAG)

complex of SEQ ID NO: 12 and SEQ ID NO: 16 (MBP-AK / MBP-AKA), sequence (A0A0D1E894 entry or part of it, one chain of several): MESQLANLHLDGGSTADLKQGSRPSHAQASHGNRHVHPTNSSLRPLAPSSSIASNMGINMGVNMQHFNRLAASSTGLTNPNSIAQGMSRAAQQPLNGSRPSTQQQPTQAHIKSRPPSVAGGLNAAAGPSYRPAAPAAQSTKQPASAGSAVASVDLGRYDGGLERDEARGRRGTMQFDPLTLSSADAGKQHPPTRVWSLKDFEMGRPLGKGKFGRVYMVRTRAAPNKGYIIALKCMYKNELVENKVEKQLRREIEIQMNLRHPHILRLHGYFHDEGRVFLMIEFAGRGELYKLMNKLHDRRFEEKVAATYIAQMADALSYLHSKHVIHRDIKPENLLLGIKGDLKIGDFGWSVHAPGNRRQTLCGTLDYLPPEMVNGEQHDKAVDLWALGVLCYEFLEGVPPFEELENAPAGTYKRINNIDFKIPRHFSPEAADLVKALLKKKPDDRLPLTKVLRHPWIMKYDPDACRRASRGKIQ

## CN[C@@H]1C[C@H]2O[C@@](C)([C@@H]1OC)n1c3ccccc3c3c4c(c5c6ccccc6n2c5c31)C(=O)NC4 [staurosporine]
[1]
  IC50: 2.1 nM

## SEQ ID NO: 12 (MBP-AK fusion protein; aurora kinase um10119 of U. maydis with TAG)
[2]
  AK activity, radioactive assay (phosphorylation of basic myelin protein): SEQ ID NO: 12 in the presence of SEQ ID NO: 16 shows AK activity
  phosphorylation of basic myelin protein, PKAtide and Kemptide (IMAP fluorescence polarization assays): The purified complex of MBP-SEQ ID NO: 12 and MBP-SEQ ID NO: 16 was capable of phosphorylating both basic myelin protein and the substrates for human aurora kinases, PKAtide and Kemptide
  phosphorylation of substrates for human aurora kinase A (IMAP assay): Both substrates for human aurora kinase A were phosphorylated by SEQ ID NO: 12 in the presence of SEQ ID NO: 16

— patent US20120178116A1, “POLYPEPTIDES FOR IDENTIFYING FUNGICIDALLY ACTIVE COMPOUNDS” (priority 2011, published 2012)
